In paper PMC3338774, “Crystal Structure of ChrR—A Quinone Reductase with the Capacity to Reduce Chromate” (PLoS ONE, 2012):

T1: ChrR (Escherichia coli, UniProt P0AGE6)
T1 construct: full-length recombinant from E. coli BL21 (DE3), pET28a (His) or pTYB3 (intein), tags removed by thrombin or DTT; untagged WT crystallized; tetramer; residues 4-184 (chain A) and 4-185 (chain B) seen in crystal
T1 sequence (P0AGE6 1-188): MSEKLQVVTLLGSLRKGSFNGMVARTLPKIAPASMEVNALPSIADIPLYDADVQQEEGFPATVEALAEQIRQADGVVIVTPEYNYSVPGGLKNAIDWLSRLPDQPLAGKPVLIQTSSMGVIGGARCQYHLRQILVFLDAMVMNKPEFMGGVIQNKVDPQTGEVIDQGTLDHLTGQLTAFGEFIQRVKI

B1: Escherichia coli ChrR enzyme, wild type (enzyme)
chain: EKLQVVTLLGSLRKGSFNGMVARTLPKIAPASMEVNALPSIADIPLYDADVQQEEGFPATVEALAEQIRQADGVVIVTPEYNYSVPGGLKNAIDWLSRLPDQPLAGKPVLIQTSSMGVIGGARCQYHLRQILVFLDAMVMNKPEFMGGVIQNKVDPQTGEVIDQGTLDHLTGQLTAFGEFIQRVKI
notes: ChrR, quinone reductase with chromate reductase activity, Escherichia coli; the crystal structure models residues 4-184 (chain A) and 4-185 (chain B); The crystallised protein is called untagged; also called ChrR WT; native ChrR; source: E. coli BL21 (DE3), purified (His-Trap nickel or chitin bead column, tag removed, gel filtration on Superdex 200)
B2: ChrR21 (Tyr128Asn) (enzyme, Escherichia coli)
chain: EKLQVVTLLGSLRKGSFNGMVARTLPKIAPASMEVNALPSIADIPLYDADVQQEEGFPATVEALAEQIRQADGVVIVTPEYNYSVPGGLKNAIDWLSRLPDQPLAGKPVLIQTSSMGVIGGARCQNHLRQILVFLDAMVMNKPEFMGGVIQNKVDPQTGEVIDQGTLDHLTGQLTAFGEFIQRVKI
notes: ChrR, Escherichia coli, with Tyr128Asn; PDB 3SVL is the wild-type parent; source: E. coli BL21 (DE3), pET28a, purified (His-Trap nickel column, tag removed, gel filtration)
B3: ChrR41 (Glu146Thr) (enzyme, Escherichia coli)
chain: EKLQVVTLLGSLRKGSFNGMVARTLPKIAPASMEVNALPSIADIPLYDADVQQEEGFPATVEALAEQIRQADGVVIVTPEYNYSVPGGLKNAIDWLSRLPDQPLAGKPVLIQTSSMGVIGGARCQYHLRQILVFLDAMVMNKPTFMGGVIQNKVDPQTGEVIDQGTLDHLTGQLTAFGEFIQRVKI
notes: ChrR, Escherichia coli, with Glu146Thr; PDB 3SVL is the wild-type parent; source: E. coli BL21 (DE3), pET28a, purified (His-Trap nickel column, tag removed, gel filtration)
B4: ChrR42 (Tyr85Asn) (enzyme, Escherichia coli)
chain: EKLQVVTLLGSLRKGSFNGMVARTLPKIAPASMEVNALPSIADIPLYDADVQQEEGFPATVEALAEQIRQADGVVIVTPEYNNSVPGGLKNAIDWLSRLPDQPLAGKPVLIQTSSMGVIGGARCQYHLRQILVFLDAMVMNKPEFMGGVIQNKVDPQTGEVIDQGTLDHLTGQLTAFGEFIQRVKI
notes: ChrR, Escherichia coli, with Tyr85Asn; PDB 3SVL is the wild-type parent; source: E. coli BL21 (DE3), pET28a, purified (His-Trap nickel column, tag removed, gel filtration)
B5: ChrR43 (Arg125Met) (enzyme, Escherichia coli)
chain: EKLQVVTLLGSLRKGSFNGMVARTLPKIAPASMEVNALPSIADIPLYDADVQQEEGFPATVEALAEQIRQADGVVIVTPEYNYSVPGGLKNAIDWLSRLPDQPLAGKPVLIQTSSMGVIGGAMCQYHLRQILVFLDAMVMNKPEFMGGVIQNKVDPQTGEVIDQGTLDHLTGQLTAFGEFIQRVKI
notes: ChrR, Escherichia coli, with Arg125Met; PDB 3SVL is the wild-type parent; source: E. coli BL21 (DE3), pET28a, purified (His-Trap nickel column, tag removed, gel filtration)

Key:
ChrR = molecular target: T1, ChrR; assay: X-ray crystallography, […] Å; assay type: binding; settings: bound at active site, non-covalent; crystals at PEG8000, NaCl, calcium acetate
[1] = molecular target: the molecule itself; assay: crystal structure; untagged wild type ChrR at 26 mg/mL, sitting drop vapor diffusion, PEG8000, sodium chloride, calcium acetate; 2.2 Å, space group P6(3)22; two molecules (a homo-dimer) in the asymmetric unit, tetramer formed by two symmetry related dimers
[2] = molecular target: the molecule itself; assay: SEC; analytic Superdex 200 10/300 column, 0.5 mL per min; proteins pre-incubated with FMN (1 mM, 2 h); various protein concentrations, including those used for measuring the enzyme activity

| Molecule | stoichiometry N [2] | also measured |
| --- | --- | --- |
| Cc1cc2nc3c(=O)[nH]c(=O)nc-3n(C[C@H](O)[C@H](O)[C@H](O)COP(=O)(O)O)c2cc1C [FMN, flavin mononucleotide] | – | X-ray crystallography, 2.2 Å (ChrR): FMN is anchored by several hydrogen bonds to a typical strand-loop-helix nucleotide-binding motif |
| B1 | – | stoichiometry N [1]: 4 |
| B2 | 4 | – |
| B3 | 4 | – |
| B4 | 4 | – |
| B5 | 4 | – |
